{"source": "patent US20140194361A1", "about": "(published 2014)", "target": "α5β1 integrin receptor on primary mesangial cells", "assay": "cell-based or functional assay", "note": "No end group written: not given here.", "data": [{"binder": "CGRGDSP (also: cyclic GRGDSP part, ring closure not given here)", "note": "[modified CGRGDSP peptide (D-peptide)]", "values": [{"measurement": "inhibition of MC adhesion to fibronectin-coated plates, enhanced potency of D- vs. E-control peptide compared to GRGDSP, at 200 µg/ml", "value": 2.4, "unit": "fold"}, {"measurement": "inhibition of MC adhesion to fibronectin-coated plates, enhanced potency of D- vs. E-control peptide compared to GRGDSP, at 400 µg/ml", "value": 2.8, "unit": "fold"}, {"measurement": "inhibition of mesangial cell binding to FN-coated plates, potency against GRGDSP", "value": "~3 fold more potent than GRGDSP"}]}]}
